Drawing on the supplement of paper PMC9732359, this text covers protein stability index for 26 sequences.

± gives the uncertainty stated by the source.

A short description of the data set: protein stability index of a GFP-peptide fusion (yeast GPS) (PSI 1-4); higher = more stable; sorted into four equal gates, so the index is relative within each strain. Put shortly: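 Peptides tiling yeast proteins in 17-residue segments were fused downstream of GFP, with Cherry expressed from the same plasmid. As a pooled library in yeast, mid-log cultures grown in leucine-free medium were sorted into four equal gates by GFP/Cherry fluorescence ratio. Gate plasmids were PCR-amplified and Illumina-sequenced, and barcodes linked reads to strains. Each peptide received a protein stability index equal to the sum of each gate's read frequency times its gate number.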

Consider PRMIELMEFLCVVSTDS [ECM29], for which the protein stability index (doa10∆) is 2.04 ± 0.064, the protein stability index (pdr5∆) is 1.66 ± 0.066, the protein stability index (san1∆) was determined as 1.64 ± 0.1 and the protein stability index (ubr1∆) was determined as 1.4 ± 0.054.
The corresponding values for PRPSYSSRPNVNTTRRF [YMR129W/POM152] are 2.89 ± 0.099, 2.97 ± 0.096, 2.92 ± 0.074 and 2.82 ± 0.067.
For PRRFGKGSRQCRVCSSH [RPS29B], in that order: 2.96 ± 0.061, 3.06 ± 0.038, 2.97 ± 0.043 and 2.912 ± 0.029.
PSANNSSSIKSTGPTGA [RRP4]: the protein stability index stood at 3.32 ± 0.038 (doa10∆), 3.28 ± 0.043 (pdr5∆), 3.349 ± 0.029 (san1∆) and 3.348 ± 0.032 (ubr1∆).
Turning to PSCVYNLIGVITHQGAN [UBP6], the protein stability index was 2.64 ± 0.14 (doa10∆), 2.9 ± 0.13 (pdr5∆), 2.99 ± 0.13 (san1∆) and 2.48 ± 0.18 (ubr1∆).
Take PSEIPDAHKAEQEDIIE [SWI3]: the protein stability index (pdr5∆) was 3.29 ± 0.14, the protein stability index (san1∆) stood at 3.46 ± 0.12 and the protein stability index (ubr1∆) came to 3.05 ± 0.17.
In the case of PSFMLKHHQLFYMLNAG [RPN1], the protein stability index amounted to 1.33 ± 0.099 (doa10∆), 1.53 ± 0.11 (pdr5∆), 1.18 ± 0.19 (san1∆) and 1.12 ± 0.086 (ubr1∆).
The corresponding values for PSKKLKTEDGFVIPALP [RPC82] are 3.08 ± 0.13, 3.19 ± 0.089, 2.93 ± 0.083 and 3.08 ± 0.065.
The corresponding values for PSLELSAEYLQMSLEAN [YJR042W/NUP85] are 1.78 ± 0.087, 2.15 ± 0.095, 2.54 ± 0.18 and 2.4 ± 0.07.
PSLIQEEEEDTTTTANI [NUT1] came in with a protein stability index (doa10∆) of 3.04 ± 0.11, a protein stability index (pdr5∆) of 3.12 ± 0.16, a protein stability index (san1∆) of 3.18 ± 0.12 and a protein stability index (ubr1∆) of 3.16 ± 0.19.
The corresponding values for PSLKAHFTEIKLNKVDK [SIR3] are 2.31 ± 0.061, 2.13 ± 0.065, 2.35 ± 0.065 and 2.08 ± 0.082.
The sequence PSLKFKPKAVARKSKEE [RPC53] showed a protein stability index (doa10∆) of 2.82 ± 0.12, a protein stability index (pdr5∆) of 2.65 ± 0.086, a protein stability index (san1∆) of 2.43 ± 0.07 and a protein stability index (ubr1∆) of 2.88 ± 0.077.
For PSMKKIKIEPSADDDVN [SIR3], in that order: 1.95 ± 0.077, 2.63 ± 0.1, 2.75 ± 0.091 and 2.73 ± 0.069.
Take PSRIFYKALRGMVSHKT [RPL16A]: the protein stability index is, setting by setting: (doa10∆) 2.32 ± 0.1; (pdr5∆) 1.27 ± 0.075; (san1∆) 2.44 ± 0.14; (ubr1∆) 1.82 ± 0.13.
The corresponding values for PSTKVASSAVMNRRKIA [YLR335W/NUP2] are 1.41 ± 0.071, 1.77 ± 0.062, 2.14 ± 0.12 and 2.38 ± 0.073.
Take PSVGVKTMKTFVIHIQE [RPB5]: the protein stability index reads like this: (doa10∆) 2.83 ± 0.087; (pdr5∆) 2.82 ± 0.13; (san1∆) 2.47 ± 0.13; (ubr1∆) 2.76 ± 0.1.
The corresponding values for PSVNDFVIGVIIGTFSD [RRP40] are 1.64 ± 0.06, 2.51 ± 0.07, 2.15 ± 0.077 and 2.56 ± 0.084.
The corresponding values for PTDSSKILQKRSISKEL [SIR3] are 2.76 ± 0.066, 2.98 ± 0.086, 3.02 ± 0.065 and 2.85 ± 0.081.
For PTLAGMAQRTLKNKYES [FAS2], in that order: 2.76 ± 0.031, 2.67 ± 0.027, 2.63 ± 0.029 and 2.657 ± 0.02.
Consider PTLQVGDLVYARVCTAE [RRP40], for which the protein stability index (doa10∆) came to 1.5 ± 0.075, the protein stability index (pdr5∆) was found to be 1.85 ± 0.12, the protein stability index (san1∆) came out at 1.42 ± 0.12 and the protein stability index (ubr1∆) stood at 1.88 ± 0.082.
For PTPAIIKPKPLWSGKQI [RPO21], in that order: 2 ± 0.11, 2.5 ± 0.093, 2.48 ± 0.08 and 2.54 ± 0.098.
The corresponding values for PTPVVTISEKEQDILDL [SSN2] are 2.76 ± 0.1, 2.02 ± 0.095, 2.61 ± 0.12 and 2.73 ± 0.099.
In turn, PTRMVRVAKGSGTSVFE [SRP54] displayed a protein stability index (doa10∆) of 2.94 ± 0.29.
Consider PTSAQKSAVSHAPAYHR [IRR1], for which the protein stability index is, setting by setting: (doa10∆) 2.81 ± 0.14; (pdr5∆) 2.69 ± 0.12; (ubr1∆) 2.89 ± 0.062.
Turning to PVAKWFVKFITYLTQEI [SIN4], the protein stability index by setting is: (doa10∆) 2.32 ± 0.048; (pdr5∆) 1.88 ± 0.046; (san1∆) 1.76 ± 0.078; (ubr1∆) 2.07 ± 0.064.
The corresponding values for PVFHKKAKTTKKVVLRL [RPL42A] are 2.95 ± 0.11, 1.92 ± 0.091, 2.25 ± 0.094 and 1.98 ± 0.14.
